According to PMC12095048 (Oncogene, 2025):

Assays:
[1] = molecular target: His-CHK2 (WT), full length (UniProt O96017 1-543); experiment: pull-down
[2] = molecular target: His-HIF-1α (WT), full length (UniProt Q16665 1-826); experiment: pull-down
Chain of His-HIF-1α (WT), full length (Q16665 whole entry): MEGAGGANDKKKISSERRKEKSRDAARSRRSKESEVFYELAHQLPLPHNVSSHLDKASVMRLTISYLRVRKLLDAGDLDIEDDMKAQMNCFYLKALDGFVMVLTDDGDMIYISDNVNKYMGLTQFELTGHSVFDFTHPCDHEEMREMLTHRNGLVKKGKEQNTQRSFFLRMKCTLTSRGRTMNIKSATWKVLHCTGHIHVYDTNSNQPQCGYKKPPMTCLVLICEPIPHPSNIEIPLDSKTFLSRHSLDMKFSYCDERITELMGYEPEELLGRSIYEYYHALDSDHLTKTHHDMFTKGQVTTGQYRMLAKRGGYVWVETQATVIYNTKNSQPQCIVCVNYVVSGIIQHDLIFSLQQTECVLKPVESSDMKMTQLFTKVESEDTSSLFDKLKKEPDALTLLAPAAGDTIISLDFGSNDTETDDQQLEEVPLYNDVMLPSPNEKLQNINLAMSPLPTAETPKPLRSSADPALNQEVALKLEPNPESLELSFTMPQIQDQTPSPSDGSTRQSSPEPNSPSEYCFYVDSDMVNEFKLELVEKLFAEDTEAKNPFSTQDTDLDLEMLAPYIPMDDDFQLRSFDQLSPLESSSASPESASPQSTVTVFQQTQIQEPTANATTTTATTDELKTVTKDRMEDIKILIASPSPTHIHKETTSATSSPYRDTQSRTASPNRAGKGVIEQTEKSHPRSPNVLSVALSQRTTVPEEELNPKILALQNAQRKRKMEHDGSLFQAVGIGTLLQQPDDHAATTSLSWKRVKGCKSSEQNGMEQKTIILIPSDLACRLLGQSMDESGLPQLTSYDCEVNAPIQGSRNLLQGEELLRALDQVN

Binder | binding result [1] | binding result [2]
GST-HIF-1α (aa 81–200) (domain or fragment) not shown | binds | –
GST-HIF-1α (aa 400–575) (domain or fragment, UniProt Q16665 400-575, looked up) LAPAAGDTIISLDFGSNDTETDDQQLEEVPLYNDVMLPSPNEKLQNINLAMSPLPTAETPKPLRSSADPALNQEVALKLEPNPESLELSFTMPQIQDQTPSPSDGSTRQSSPEPNSPSEYCFYVDSDMVNEFKLELVEKLFAEDTEAKNPFSTQDTDLDLEMLAPYIPMDDDFQLR | binds | –
GST-CHK2 (aa 1–193) (domain or fragment, UniProt O96017 1-193, looked up) MSRESDVEAQQSHGSSACSQPHGSVTQSQGSSSQSQGISSSSTSTMPNSSQSSHSSSGTLSSLETVSTQELYSIPEDQEPEDQEPEEPTPAPWARLWALQDGFANLECVNDNYWFGRDKSCEYCFDEPLLKRTDKYRTYSKKHFRIFREVGPKNSYIAYIEDHSGNGTFVNTELVGKGKRRPLNNNSEIALSL | – | binds
